Assay results from PMC3354533.

Molecular target: endogenous calcineurin A (CaNA) in mouse primary cortical neurons (mouse (endogenous in primary cortical neurons)) (UniProt P63328)
Assay: FRET or BRET

Row | 565/522 ratio, spine, AD brain SEC fraction 60 min | FRET Ratio increase, cytoplasm, 6 hours of TgCM | FRET Ratio increase, nucleus, 6 hours of TgCM | peak of the FRET distribution in spines, 15 min of TgCM | peak of the FRET distribution in spines, 30 min of TgCM | peak of the FRET distribution in spines, 60 min of TgCM | Substance
1 | 0.451 | 0.51 | 0.49 | 0.45 | 0.48 | 0.48 | endogenous calcineurin B subunit (CaNB) in mouse primary cortical neurons (from UniProt Q63810 1-170) (natural protein)
2 | – | – | – | 0.38 | 0.39 | 0.4 | endogenous calmodulin (CaM) in mouse primary cortical neurons (from UniProt P0DP26 1-149) (natural protein)
